Reference: the Human Domainome abundance scans (Beltran et al. 2025)

B1: E3 ubiquitin-protein ligase NEDD4, residues 836 to 881; numbered along this chain, P46934 (parent)
chain: EIEQGFLPKGWEVRHAPNGRPFFIDHNTKTTTWEDPRLKIPAHLRG
B2: V(D)J recombination-activating protein 2, residues 415 to 491; numbered along this chain, P55895 (parent)
chain: YWITCCPTCDVDINTWVPFYSTELNKPAMIYCSHGDGHWVHAQCMDLAERTLIHLSAGSNKYYCNEHVEIARALHTP

Variants of: B1
Test: abundance fitness (aPCA) (normalised: wild type 0, dead -1); higher = more abundant; growth selection in yeast, the domain comes from the species named
Settings: Homo sapiens

Abundance fitness: each site, then its substitutions
E3: M -0.073; Y -0.07; R -0.366; A -0.251; D -0.455; I -0.15; Q 0.098; C -0.141; K -0.096; N 0.097; V -0.162; L -0.421; T -0.029; F -0.109; W -0.35; G -0.044
Q4: C 0.012; N -0.092; T -0.242; G -0.09; H -0.172; Y -0.016; W -0.298; A -0.146; R -0.002; F 0.067; P -0.116; L -0.062; M -0.387; K 0.127; I -0.335; E 0.12; D -0.285; S -0.024
I2: W -0.271; M -0.044; H -0.326; L 0.11; D 0.035; Y -0.326; S -0.166; Q 0.178; K -0.012; V -0.334; E -0.037; A -0.152; C -0.217; R -0.141; F -0.129; T -0.214; P -0.953
F6: A 0.155; H 0.05; Q -0.297; G 0.09; S 0.16; C 0.265; D 0.241; Y 0.018; I 0.372; R 0.149; P 0.001; L 0.051; T 0.202; V 0.038; W -0.063; M -0.345; K 0.117
E1: Y 0.202; A -0.259; R -0.07; N 0.381; G -0.27; K -0.095; T 0.091; V -0.153; D -0.219
G5: W -0.105; A -0.064; V -0.171; F -0.158; P -0.26; E -0.141; L -0.217; N 0.031; Y 0.008; I -0.219; S -0.068; Q -0.299; K 0.015; H -0.313; R -0.123; C -0.21; M -0.175
L7: H -0.543; A -0.599; K -0.601; G -0.524; I -0.493; C -0.882; M -0.186; F -0.459; E -0.437

Variants of: B2
Test: as above
Settings: Homo sapiens

Abundance fitness: each site, then its substitutions
E66: N -0.381; T -0.063; S -0.039; R -0.127; L 0.01; F -0.193; G 0.006; A -0.025; Q -0.057; M 0.048; C 0.023; K -0.099; V -0.105; H -0.22; W -0.192; I -0.17; P -0.231
Y63: S -0.18; D -0.207; M -0.171; W 0.115; H -0.012; C 0.188; E -0.068; V -0.051; R -0.049; I 0.036; A -0.048; F -0.002; K -0.005; G -0.377
C64: M -1.06; A -1.01; E -1.05; W -0.901; R -0.945; S -0.803; G -0.935; H -0.962; F -0.851; Q -0.768; L -1.07; K -0.842; Y -0.712; V -0.557; T -1.05; P -0.822
L74: G 0.092; Q -0.062
H75: G 0.087; N 0.051; W -0.069; C -0.155; F -0.087; E 0.029; D 0.094; Y -0.179; L -0.013; T 0.089; A 0.002; Q 0.089; P -0.111; I -0.003; R -0.001; V -0.075; K -0.003; S -0.042
A71: W -0.207; P -0.03; Q 0.044; V -0.003; D -0.038; C -0.033; M -0.12; G -0.051; Y 0.124; E 0.085; N -0.121; K -0.225; S -0.04; L 0.027; R 0.026; I -0.008; H -0.179; T 0.09
R72: Q -0.085; S 0.073; I -0.121; F -0.131; G 0.022; C -0.143; K 0.022; T 0.056; P 0.01; D 0.032; Y -0.332; W -0.168; E -0.042; A 0.138; N 0.059; V -0.016
E69: D 0.052; R 0.035; C -0.355; A -0.092; P 0.358; M 0.18; T 0.007; Y -0.328; S 0.075; W 0.071; V -0.14; K -0.183; Q 0.147; G 0
Y62: R -0.561; K -0.6; D -0.558; N -0.469; V -0.342; M -0.206; T -0.152; P -0.67; G -0.495; Q -0.312; F -0.003; H -0.377; I -0.281; W 0.067; L -0.304
A73: Y -0.109; T 0.033; Q 0.009; M -0.121; W -0.104; V -0.257; L 0.053; I -0.042; R 0.001; E -0.009; D 0.019; P 0.027; G 0.096; S -0.089
N65: P 0.016; T -0.005; Y -0.318; S 0.079; H 0.003; A 0.001; Q -0.181; E 0.058; G 0.012; F -0.172; K -0.047; M -0.12; R 0.079; W 0.036; I 0.185; V 0.008; C -0.138; L 0.008
H67: W -0.484; L -0.741; D -0.424; G -0.116; V -0.387; Q -0.348; N -0.32; M -0.579; T -0.22; I -0.874; F -0.485; C -0.031; S -0.196; P -0.369; K -0.388; R -0.253
P77: N -0.325; G -0.157; C -0.243; Q -0.011; S -0.354; A -0.123; W -0.237; R 0.152
I70: P -0.216; E -0.093; D 0.112; C 0.176; K -0.139; Y 0.064; H -0.205; N -0.169; F -0.002; Q -0.036; L 0.03; M 0.02; R 0.015; G -0.045; S -0.145
T76: V -0.074; I -0.155; H -0.149; C -0.416; S -0.046; G -0.057; R -0.091; W -0.321; Q -0.009; K 0.081; F -0.373; M -0.034; P 0.054; A 0.005; L -0.029; N -0.13
V68: I -0.318; W -0.076; E -0.439; G 0; A -0.173; M -0.087; C -0.019; P -0.125; N -0.219; K -0.115; Y -0.335; Q -0.495; L -0.08; R -0.163
